Patent US20240024501A1 (BONUM THERAPEUTICS, published 2024)

B1: PD1-IL2-R06-E04 (scFv)
scFv: QVQLVQSGAEVKKPGASVKVSCKASGYTFTRYYIHWVRQAPGQGLEWMGWINAYNGDTNYAQKLQGRVTMTRDTSTSTVYMELSSLRSEDTAVYYCARDSYYYDSFDYWGQGTLVTVSSASGGGGSGGGGSGGGGSHASDIQMTQSPSSLSASVGDRVTITCRASQTITDWLAWYQQKPGKAPKLLIYGASNLQGGVPSRFSGSGSGTDFTLTISSLQPEDFATYYCQQYYSSWTFGQGTKVEIK
notes: cell-free expressed, V5-tagged
B2: PD1-IL2-R02-B07 (scFv)
scFv: QVQLVQSGAEVKKPGASVKVSCKASGDTFTRHYVHWVRQAPGQGLEWMGIINPSGGYASYAQKFQGRVTMTRDTSTSTVYMELSSLRSEDTAVYYCAAGLFIWGQGTLVTVSSASGGGGSGGGGSGGGGSHASDIQMTQSPSSLSASVGDRVTITCRASQSIGRWLAWYQQKPGKAPKLLIYSASNLETGVPSRFSGSGSGTDFTLTISSLQPEDFATYYCQQANSFPVTFGPGTKVDIK
B3: PD1-IL2-R02-B05 (scFv)
scFv: QVQLVQSGAEVKKPGASVKVSCKASGYTFTNYYIHWVRQAPGQGLEWMGIINPRAGYTSYALKFQGRVTMTRDTSTSTVYMELSSLRSEDTAVYYCAGGWLDWGQGTLVTVSSASGGGGSGGGGSGGGGSHASDIQMTQSPSSLSASVGDRVTITCRASQSISSWLAWYQQKPGKAPKLLIYAASSLQSGVPSRFSGSGSGTDFTLTISSLQPEDFATYYCQQSFTMPITFGQGTRLEIK
B4: PD1-IL2-R07-A09 (scFv)
scFv: QVQLVQSGAEVKKPGASVKVSCKASGYTFTSYYMHWVRQAPGQGLEWMGIINPSDGSTTYAQSFQGRVTMTRDTSTSTVYMELSSLRSEDTAVYYCASGWDVWGQGTLVTVSSASGGGGSGGGGSGGGGSHASDIVMTQSPDSLAVSLGERATINCKSSQSVFSSANNKNYLAWYQQKPGQPPKLLIYWASTRESGVPDRFSGSGSGTDFTLTISSLQAEDVAVYYCQQYFGTPVTFGGGTKVEIK
notes: as for B1
B5: PD1-IL2-R02-C02 (scFv)
scFv: QVQLVQSGAEVKKPGVSVKVSCKASGYTFPRSYIHWVRQAPGQGLEWMGWINPHSGDTYYAQNFQGRVTMTRDTSTSTVYMELSSLRSEDTAVYYCARDTGLGYYYGSGDFDYWGQGTLVTVSSASGGGGSGGGGSGGGGSHASDIQMTQSPSSLSASVGDRVTITCRASQSISRYLNWYQQKPGKAPKLLIYTASSLQSGVPSRFSGSGSGTDFTLTISSLQPEDFATYYCQQANRFPLTFGPGTKVDIK
notes: as for B1
B6: PD1-IL2-R02-C03 (scFv)
scFv: QVQLVQSGAEVKKPGASVKVSCKASGYTFPRYHIHWVRQAPGQGLEWMGMINPSGGTTTYAQKFQGRVTMTRDTSTSTVYMELSSLRSEDTAVYYCARDTGLGYYYGSGDFDYWGQGTLVTVSSASGGGGSGGGGSGGGGSHASDIQMTQSPSSLSASVGDRVTITCRASQSISSWLAWYQQKPGKAPKLLIYAASSLQSGVPSRFSGSGSGTDFTLTISSLQPEDFATYYCQQSHSFPLTFGGGTKVEIK
notes: as for B1
B7: PD1-IL2-R02-A08 (scFv)
scFv: QVQLVQSGAEVKKPGASVKVSCKVSGYTFTSYDINWVRQAPGQGLEWMGWINPNSGDTGYAQKFQGRVTMTRDTSTSTVYMELSSLRSEDTAVYYCARDTGLGYYYGSGDFDYWGQGTLVTVSSASGGGGSGGGGSGGGGSHASDIQMTQSPSSLSASVGDRVTITCQASQDIHNYLNWYQQKPGKAPKLLIYDVSNLETGVPSRFSGSGSGTDFTLTISSLQPEDFATYYCQQAISFPLTFGGGTKVEIK
B8: PD1-IL2-R02-A11 (scFv)
scFv: QVQLVQSGAEVKKPGASVKVSCKASGHTFTRYYMHWVRQAPGQGLEWMGIINPSGGYATYAQKFQGRVTMTRDTSTSTVYMELSSLRSEDTAVYYCASGWDVWGQGTLVTVSSASGGGGSGGGGSGGGGSHASDIQMTQSPSSLSASVGDRVTITCRASQSINSWLAWYQQKPGKAPKLLIYATSTLESGVPSRFSGSGSGTDFTLTISSLQPEDFATYYCQQSYSFPPTFGQGTKVEIK
B9: PD1-R04-C10 (scFv)
chain: MSTSTEQKLISEEDLQVQLVQSGAEVKKPGASVKVSCKASGYTFTTYYMHWVRQAPGQGLEWMGIINPSGGGTLYAQKFQGRVTMTRDTSTSTVYMELSSLRSEDTAVYYCAAGLFIWGQGTTVTVSSASGGGGSGGGGSGGGGSHASDIVMTQSPDSLAVSLGERATINCKASQSLLHSSSNKNYLAWYQQKPGQPPKLLIYWASTRESGVPDRFSGSGSGTDFTLTISSLQAEDVAVYYCQQYYSTPITFGPGTKVDIKGSGLNDIFEAQKIEWHEGKPIPNPLLGLDST
B10: PD1-IL2-R07-A04 (scFv)
scFv: QVQLVQSGAEVKKPGASVKVSCKASGYTFTDYYMHWVRQAPGQGLEWMGIINPRAGYTSYALKFQGRVTMTRDTSTSTVYMELSSLRSEDTAVYYCTSGMDVWGQGTLVTVSSASGGGGSGGGGSGGGGSHASDIQMTQSPSSLSASVGDRVTITCRASQSISTWLAWYQQKPGKAPKLLIYAASSLQSGVPSRFSGSGSGTDFTLTISSLQPEDFATYYCQQSYSFPVTFGQGTKVEIK
B11: AF4387 (other)
heavy 1: APTSSSTKKTQLQLEHLLLDLQMILNGINNYKNPKLTDMLTFEFYMPKKATELKHLQCLERELKPLEEVLNLAQSKNFHLRPRDLISNINVIVLELKGSETTFMCEYADETATIVEFLNRWITFCQSIISTLTGGGGSGGGGSGGGGSGGGGSQVQLVQSGAEVKKPGASVKVSCKASGYTFTDYYMHWVRQAPGQGLEWMGIINPRAGYTSYALKFQGRVTMTRDTSTSTVYMELSSLRSEDTAVYYCTSGWDVWGQGTLVTVSSAKTTAPSVYPLAPVCGDTTGSSVTLGCLVKGYFPEPVTLTWNSGSLSSGVHTFPAVLQSDLYTLSSSVTVTSSTWPSQSITCNVAHPASSTKVDKKIEPRGPTIKPCPPCKCPAPNAAGGPSVFIFPPKIKDVLMISLSPIVTCVVVDVSEDDPDVQISWFVNNVEVHTAQTQTHREDYNSTLRVVSALPIQHQDWMSGKEFKCKVNNKDLGAPIERTISKPKGSVRAPQVYVLPPPEEEMTKKQVTLTCMVTDFMPEDIYVEWTNNGKTELNYKNTEPVLDSDGSYFMYSDLRVEKKNWVERNSYSCSVVHEGLHNHHTTESFSRTPGK
heavy 2: QVQLVQSGAEVKKPGASVKVSCKASGYTFTDYYMHWVRQAPGQGLEWMGIINPRAGYTSYALKFQGRVTMTRDTSTSTVYMELSSLRSEDTAVYYCTSGWDVWGQGTLVTVSSAKTTAPSVYPLAPVCGDTTGSSVTLGCLVKGYFPEPVTLTWNSGSLSSGVHTFPAVLQSDLYTLSSSVTVTSSTWPSQSITCNVAHPASSTKVDKKIEPRGPTIKPCPPCKCPAPNAAGGPSVFIFPPKIKDVLMISLSPIVTCVVVDVSEDDPDVQISWFVNNVEVHTAQTQTHREDYNSTLRVVSALPIQHQDWMSGKEFKCKVNNKDLGAPIERTISKPKGSVRAPQVYVLPPPEKEMTKKQVSLTCLVKDFMPEDIYVEWTNNGKTELNYKNTEPVLKSDGSYFMYSKLTVEKKNWVERNSYSCSVVHEGLHNHHTTKSFSRTPGGGGSGGGSHHHHHH
light: DIQMTQSPSSLSASVGDRVTITCRASQSISTWLAWYQQKPGKAPKLLIYAASSLDSGVPSRFSGSGSGTDFTLTISSLQPEDFATYYCQQSYSFPVTFGQGTKVEIKRADAAPTVSIFPPSSEQLTSGGASVVCFLNNFYPKDINVKWKIDGSERQNGVLNSWTDQDSKDSTYSMSSTLTLTKDEYERHNSYTCEATHKTSTSPIVKSFNRNEC
B12: AF4386 (other)
heavy 1: APTSSSTKKTQLQLEHLLLDLQMILNGINNYKNPKLTDMLTFEFYMPKKATELKHLQCLERELKPLEEVLNLAQSKNFHLRPRDLISNINVIVLELKGSETTFMCEYADETATIVEFLNRWITFCQSIISTLTGGGGSGGGGSGGGGSGGGGSQVQLVQSGAEVKKPGASVKVSCKASGDTFTRYYVHWVRQAPGQGLEWMGIINPSGGYASYAQKFQGRVTMTRDTSTSTVYMELSSLRSEDTAVYYCAAGLFIWGQGTLVTVSSAKTTAPSVYPLAPVCGDTTGSSVTLGCLVKGYFPEPVTLTWNSGSLSSGVHTFPAVLQSDLYTLSSSVTVTSSTWPSQSITCNVAHPASSTKVDKKIEPRGPTIKPCPPCKCPAPNAAGGPSVFIFPPKIKDVLMISLSPIVTCVVVDVSEDDPDVQISWFVNNVEVHTAQTQTHREDYNSTLRVVSALPIQHQDWMSGKEFKCKVNNKDLGAPIERTISKPKGSVRAPQVYVLPPPEEEMTKKQVTLTCMVTDFMPEDIYVEWTNNGKTELNYKNTEPVLDSDGSYFMYSDLRVEKKNWVERNSYSCSVVHEGLHNHHTTESFSRTPGK
heavy 2: QVQLVQSGAEVKKPGASVKVSCKASGDTFTRYYVHWVRQAPGQGLEWMGIINPSGGYASYAQKFQGRVTMTRDTSTSTVYMELSSLRSEDTAVYYCAAGLFIWGQGTLVTVSSAKTTAPSVYPLAPVCGDTTGSSVTLGCLVKGYFPEPVTLTWNSGSLSSGVHTFPAVLQSDLYTLSSSVTVTSSTWPSQSITCNVAHPASSTKVDKKIEPRGPTIKPCPPCKCPAPNAAGGPSVFIFPPKIKDVLMISLSPIVTCVVVDVSEDDPDVQISWFVNNVEVHTAQTQTHREDYNSTLRVVSALPIQHQDWMSGKEFKCKVNNKDLGAPIERTISKPKGSVRAPQVYVLPPPEKEMTKKQVSLTCLVKDFMPEDIYVEWTNNGKTELNYKNTEPVLKSDGSYFMYSKLTVEKKNWVERNSYSCSVVHEGLHNHHTTKSFSRTPGGGGSGGGSHHHHHH
light: DIQMTQSPSSLSASVGDRVTITCRASQSIGRYLAWYQQKPGKAPKLLIYSASNLETGVPSRFSGSGSGTDFTLTISSLQPEDFATYYCQQYNSFPVTFGPGTKVDIKRADAAPTVSIFPPSSEQLTSGGASVVCFLNNFYPKDINVKWKIDGSERQNGVLNSWTDQDSKDSTYSMSSTLTLTKDEYERHNSYTCEATHKTSTSPIVKSFNRNEC

Target: T1, human IL-2 (human, UniProt P60568 21-153, biotin label in the IL2RB blocking assay)
T1 construct: also called biotin-labeled IL-2 (Acro Biosystems IL2-H82E4)
Experiment: HTRF
Text: (§1) The PURExpress scFv proteins were used directly in HTRF binding assays and cell-based functional assays.

T1 sequence (P60568 21-153 limits assumed): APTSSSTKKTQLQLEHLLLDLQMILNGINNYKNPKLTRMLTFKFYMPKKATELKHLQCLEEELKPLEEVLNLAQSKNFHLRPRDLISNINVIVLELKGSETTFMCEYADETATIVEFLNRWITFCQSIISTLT

First: B1
Second: B2
The “IL2 Binding (HTRF signal)” value of the first is lower: 247 for the first, 628 for the second.

Compared with B3, B4 is lower in “IL2 Binding (HTRF signal)” value: 2490 for the first, 2040 for the second.

Compared with B5, B6 is lower in “IL2 Binding (HTRF signal)” value: 298 for the first, 293 for the second.

Going from B7 to B8, the “IL2 Binding (HTRF signal)” value rises from 520 to 1560.

Compared with B9, B10 is higher in “IL2 Binding (HTRF signal)” value: 4 for the first, 973 for the second.

Target: PD-1 (human, UniProt Q15116 25-167, limits assumed)
Experiment: HTRF
Text: as §1

PD-1, sequence (Q15116 25-167 limits assumed): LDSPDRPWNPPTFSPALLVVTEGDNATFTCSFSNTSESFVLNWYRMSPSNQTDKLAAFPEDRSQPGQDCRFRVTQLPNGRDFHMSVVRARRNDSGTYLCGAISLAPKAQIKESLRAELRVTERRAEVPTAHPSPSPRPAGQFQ

Compared with B1, B2 is higher in “PD1 Binding (HTRF signal)” value: 50 for the first, 1680 for the second.

Going from B3 to B4, the “PD1 Binding (HTRF signal)” value falls from 1660 to 1240.

First: B5
Second: B6
The “PD1 Binding (HTRF signal)” value of the first is lower: 1300 for the first, 1380 for the second.

Going from B7 to B8, the “PD1 Binding (HTRF signal)” value rises from 995 to 1620.

First: B9
Second: B10
The “PD1 Binding (HTRF signal)” value of the first is higher: 1550 for the first, 730 for the second.

Target: PD-1-Fc (UniProt Q15116 25-167, limits assumed)
Experiment: cell-based or functional assay

PD-1-Fc, sequence (Q15116 25-167 limits assumed): as above

Compared with B11, B12 is 4.3-fold higher in “EC50 of IL-2 activity, HEK-Blue IL-2 reporter cells, IgG1 coated wells (no PD-1)” value: 0.419 nM for the first, 1.79 nM for the second.

B11 and B12 are within 1.5-fold of each other in “EC50 of IL-2 activity, HEK-Blue IL-2 reporter cells, PD-1 coated wells” value: 0.057 nM for the first, 0.05 nM for the second.

Target: T1, human IL-2
Experiment: HTRF, IL-2:Fc-IL2RB
Text: as §1

Going from B1 to B2, the “IL2RB Blocking (HTRF signal)” value rises from 1110 to 1810.

Going from B3 to B4, the “IL2RB Blocking (HTRF signal)” value falls from 1610 to 910.

First: B5
Second: B6
The “IL2RB Blocking (HTRF signal)” value of the first is lower: 1070 for the first, 1210 for the second.

Compared with B7, B8 is higher in “IL2RB Blocking (HTRF signal)” value: 1610 for the first, 1780 for the second.

First: B9
Second: B10
The “IL2RB Blocking (HTRF signal)” value of the first is lower: 1550 for the first, 1610 for the second.
